Measured values from paper PMC9942953, “Merlin tumor suppressor function is regulated by PIP2-mediated dimerization” (PLOS ONE, 2023).

T1: Merlin L64P, patient derived mutant, P35240
T1 chain: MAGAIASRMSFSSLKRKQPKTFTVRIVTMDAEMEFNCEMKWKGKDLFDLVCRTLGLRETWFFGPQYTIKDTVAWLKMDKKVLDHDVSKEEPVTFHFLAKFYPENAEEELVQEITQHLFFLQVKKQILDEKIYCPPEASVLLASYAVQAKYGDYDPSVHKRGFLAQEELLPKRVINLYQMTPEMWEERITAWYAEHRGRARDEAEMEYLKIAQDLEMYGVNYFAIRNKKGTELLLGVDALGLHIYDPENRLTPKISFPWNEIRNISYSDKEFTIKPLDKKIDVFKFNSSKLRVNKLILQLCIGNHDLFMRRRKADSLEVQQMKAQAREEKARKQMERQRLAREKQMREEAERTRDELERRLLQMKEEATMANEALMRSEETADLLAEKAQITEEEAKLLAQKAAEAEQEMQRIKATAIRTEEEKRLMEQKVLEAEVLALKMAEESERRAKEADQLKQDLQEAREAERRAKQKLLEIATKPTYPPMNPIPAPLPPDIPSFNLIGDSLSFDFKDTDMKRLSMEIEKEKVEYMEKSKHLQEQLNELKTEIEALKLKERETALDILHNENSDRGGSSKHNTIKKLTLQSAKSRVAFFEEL


How the values were obtained:
[1] = target: the molecule itself; test: co-IP; HEK 293T co-transfected with a GFP fusion and a NanoLuc fusion; lysis in TBS, 2 mM MgCl2, 0.5% NP-40; GFP-Trap_MA; ratio of bound to unbound luciferase activity normalised to GFP fluorescence
[2] = target: T1, Merlin L64P, patient derived mutant, …; test: as above; conditions: remark: other sources report otherwise

Row | fold dimerization relative to wild type [2] | Binder | percent dimerization relative to wild type [1]
1 | – | Merlin ΔN18, deletion of the N-terminal 18 amino acids (domain or fragment, UniProt P35240 19-595, looked up, Merlin isoform 1 without its unique N-terminal 18 amino acids; source: HEK 293T, co-transfected, in lysate; not shown: NanoLuc (probe copy) or EGFP (bait copy), C-terminal, kept) PKTFTVRIVTMDAEMEFNCEMKWKGKDLFDLVCRTLGLRETWFFGLQYTIKDTVAWLKMDKKVLDHDVSKEEPVTFHFLAKFYPENAEEELVQEITQHLFFLQVKKQILDEKIYCPPEASVLLASYAVQAKYGDYDPSVHKRGFLAQEELLPKRVINLYQMTPEMWEERITAWYAEHRGRARDEAEMEYLKIAQDLEMYGVNYFAIRNKKGTELLLGVDALGLHIYDPENRLTPKISFPWNEIRNISYSDKEFTIKPLDKKIDVFKFNSSKLRVNKLILQLCIGNHDLFMRRRKADSLEVQQMKAQAREEKARKQMERQRLAREKQMREEAERTRDELERRLLQMKEEATMANEALMRSEETADLLAEKAQITEEEAKLLAQKAAEAEQEMQRIKATAIRTEEEKRLMEQKVLEAEVLALKMAEESERRAKEADQLKQDLQEAREAERRAKQKLLEIATKPTYPPMNPIPAPLPPDIPSFNLIGDSLSFDFKDTDMKRLSMEIEKEKVEYMEKSKHLQEQLNELKTEIEALKLKERETALDILHNENSDRGGSSKHNTIKKLTLQSAKSRVAFFEEL | 33%
2 | 1.28 fold | Merlin L64P, patient derived mutant, P35240 1-595 (natural protein) MAGAIASRMSFSSLKRKQPKTFTVRIVTMDAEMEFNCEMKWKGKDLFDLVCRTLGLRETWFFGPQYTIKDTVAWLKMDKKVLDHDVSKEEPVTFHFLAKFYPENAEEELVQEITQHLFFLQVKKQILDEKIYCPPEASVLLASYAVQAKYGDYDPSVHKRGFLAQEELLPKRVINLYQMTPEMWEERITAWYAEHRGRARDEAEMEYLKIAQDLEMYGVNYFAIRNKKGTELLLGVDALGLHIYDPENRLTPKISFPWNEIRNISYSDKEFTIKPLDKKIDVFKFNSSKLRVNKLILQLCIGNHDLFMRRRKADSLEVQQMKAQAREEKARKQMERQRLAREKQMREEAERTRDELERRLLQMKEEATMANEALMRSEETADLLAEKAQITEEEAKLLAQKAAEAEQEMQRIKATAIRTEEEKRLMEQKVLEAEVLALKMAEESERRAKEADQLKQDLQEAREAERRAKQKLLEIATKPTYPPMNPIPAPLPPDIPSFNLIGDSLSFDFKDTDMKRLSMEIEKEKVEYMEKSKHLQEQLNELKTEIEALKLKERETALDILHNENSDRGGSSKHNTIKKLTLQSAKSRVAFFEEL | –
